{"source": "patent US20230056252A1", "about": "(Gilead, published 2023)", "binders": {"B1": {"name": "huSP34.13.8 scFv AAS + SAV + R (Fc fusion)", "chain": "EVQLVESGGGLVQPGGSLRLSCAASGFTFSTYAMNWVRQAPGKGLEWVGRIRSKYNNYATYYAASVKGRFTISRDDSKNTLYLQMNSLRTEDTAVYYCVRHGNFGHSYVSWFAYWGQGTLVTVSSGGGGSGGGGSGGGGSGGGGSQAVVTQEPSLTVSPGGTVTLTCGSSTGAVTTGHYANWVQQKPGQAPRGLIGGTNKRAPGVPARFSGSLLGGKAALTISGAQPEDEAEYYCALWYSNRWVFGGGTKLTVLEPKSSDKTHTCPPCPAPEAAGGPSVFLFPPKPKDTLMISRTPEVTCVVVDVSHEDPEVKFNWYVDGVEVHNAKTKPREEQYNSTYRVVSVLTVLHQDWLNGKEYKCKVSNKALPASIEKTISKAKGQPREPQVYTLPPSREEMTKNQVSLSCAVKGFYPSDIAVEWESNGQPENNYKTTPPVLDSDGSFFLVSKLTVDKSRWQQGNVFSCSVMHEALHNRYTQKSLSLSPGK", "notes": "also called huSP34.13.8scFv-Fc; parent"}, "B2": {"name": "hCD4 D1.22 Fc AAS + W + YTE/huSP34.39.13 AAS + SAV + R (bispecific antibody, human IgG1, lambda, L234A L235A)", "chain": "not shown", "heavy": "EVQLVESGGGLVQPGGSLRLSCAASGFTFNTYAMNWVRQAPGKGLEWVGRIRSKYNNYATYYADSVKSRFTISRDDSKNSLYLEMNSLRTEDTAVYYCVRHGNFGHSYVSWFAYWGQGTLVTVSSASTKGPSVFPLAPSSKSTSGGTAALGCLVKDYFPEPVTVSWNSGALTSGVHTFPAVLQSSGLYSLSSVVTVPSSSLGTQTYICNVNHKPSNTKVDKKVEPKSCDKTHTCPPCPAPEAAGGPSVFLFPPKPKDTLMISRTPEVTCVVVDVSHEDPEVKFNWYVDGVEVHNAKTKPREEQYNSTYRVVSVLTVLHQDWLNGKEYKCKVSNKALPASIEKTISKAKGQPREPQVYTLPPSREEMTKNQVSLSCAVKGFYPSDIAVEWESNGQPENNYKTTPPVLDSDGSFFLVSKLTVDKSRWQQGNVFSCSVMHEALHNRYTQKSLSLSPGK", "light": "QAVVTQEPSLTVSPGGTVTLTCGSSTGAVTTGHYANWVQQKPGQAPRGLIGGTSNRAPGVPARFSGSLLGGKAALTISGAQPEDEAEYYCALWYSNRWVFGGGTKLTVLGQPKAAPSVTLFPPSSEELQANKATLVCLISDFYPGAVTVAWKADSSPVKAGVETTTPSKQSNNKYAASSYLSLTPEQWKSHRSYSCQVTHEGSTVEKTVAPTECS", "notes": "also called 180; CD4 x huSP34 bispecific 180"}}, "key": {"[1]": {"target": "T1, MabSelect SuRe (engineered Protein A)", "T1 construct": "also called MabSelect SuRe column", "assay": "500 ml Expi293 expression, MabSelect SuRe capture and cation exchange; purified homodimer yield; parental reference", "description": "500 ml of Expi293 cells were transfected with 0.5 mg DNA encoding selected huSP34 scFv-Fc Protein A knockout variants according to manufacturer's protocol. Four days post transfection, the cell-free clarified supernatant was collected and loaded to a MabSelect™ SuRe™ (Cytiva Life Sciences) column. Afterwards the column was washed with a low salt buffer of 25 mM Tris HCl pH 7.5, 25 mM NaCl for 10 column volumes (CV), then high salt wash of 25 mM Tris HCl pH 7.5, 500 mM NaCl for 5CV to remove non-specific binding, and finally washed with a low salt wash of 25 mM Tris HCl pH 7.5, 25 mM NaCl for 10CV. To elute the antibody, an isocratic elution step of 100 mM sodium acetate pH 3.7 was performed. The eluted pool was neutralized to pH 6.0 with 1 M Tris HCl pH 9.0, and subjected to a cation ion purification, HiTrap SP HP (Cytiva Life Sciences) to further remove impurities. The cation captured protein was washed with 10 mM sodium phosphate pH 7.0 for 10CV, then eluted in 0-30% gradient of 10 mM sodium phosphate pH 7.0, 1M NaCl for 50CV to separate the desired two targeting arm antibody (heterodimer) from the one targeted arm antibody (homodimer). […] Concentration of the formulated protein was measured by A280. Purity was assessed as percent monodispersed by analytical size-exclusion chromatography. Identity of the bispecific antibody was determined by Mass Spec (MS)."}, "[2]": {"target": "T2, CD3 expressed on cell-surface of primary human T cells (human, UniProt P07766 23-207; P04234 22-171)", "T2 construct": "also called cell-surface CD3; human CD3", "T2 sequence (P07766 23-207 limits assumed, chain 1 of 2)": "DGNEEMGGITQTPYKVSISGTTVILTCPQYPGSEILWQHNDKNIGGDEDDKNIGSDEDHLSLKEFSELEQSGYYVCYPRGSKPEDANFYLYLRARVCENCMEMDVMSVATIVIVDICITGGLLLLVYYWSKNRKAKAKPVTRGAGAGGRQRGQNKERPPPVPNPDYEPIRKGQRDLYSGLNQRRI", "T2 sequence (P04234 22-171 limits assumed, chain 2 of 2)": "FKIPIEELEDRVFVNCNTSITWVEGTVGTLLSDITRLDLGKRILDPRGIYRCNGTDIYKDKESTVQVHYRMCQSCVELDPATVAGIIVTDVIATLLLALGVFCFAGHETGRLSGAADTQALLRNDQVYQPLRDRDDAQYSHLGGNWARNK", "assay": "flow cytometry on PBMCs, % anti-huIgG+ CD8+ cells, donor hu 921", "description": "(§1) Briefly, PBMCs from healthy human donors and healthy rhesus or cynomolgus monkey donors were incubated with different concentrations of HIV×CD3 bispecific molecules for 1 hour at RT. […] Cells were then washed, fixed/permeabilized, and analyzed on BD LSRFortessa. The percentage of α-huIgG-APC-positive CD4+ and CD8+ T cells and the mFI of the α-huIgG-APC of CD4+ and CD8+ cells were collected, and data analyzed using GraphPad Prism."}, "[3]": {"target": "T2, CD3 expressed on cell-surface of …", "assay": "flow cytometry on PBMCs, % anti-huIgG+ CD4+ cells, donor hu 921", "description": "as §1"}, "[4]": {"target": "T2, CD3 expressed on cell-surface of …", "assay": "flow cytometry on PBMCs, % anti-huIgG+ CD8+ cells, donor hu 711", "description": "as §1"}, "[5]": {"target": "T3, CD3 on cynomolgus monkey T cells in PBMCs (cynomolgus monkey, UniProt Q95LI5 22-198)", "T3 construct": "whole, on cells; also called cynomolgus CD4+ and CD8+ T cells", "T3 sequence (Q95LI5 22-198)": "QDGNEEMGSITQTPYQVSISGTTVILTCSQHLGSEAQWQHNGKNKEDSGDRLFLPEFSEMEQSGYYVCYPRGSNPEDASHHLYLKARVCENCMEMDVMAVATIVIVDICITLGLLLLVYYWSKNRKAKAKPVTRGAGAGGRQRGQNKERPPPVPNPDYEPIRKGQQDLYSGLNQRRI", "assay": "flow cytometry on PBMCs, % anti-huIgG+ CD4+ cells, donor cy 2177", "description": "as §1"}, "[6]": {"target": "T2, CD3 expressed on cell-surface of …", "assay": "flow cytometry on PBMCs, % anti-huIgG+ CD4+ cells, donor hu 711", "description": "as §1"}, "[7]": {"target": "T3, CD3 on cynomolgus monkey T cells in …", "assay": "flow cytometry on PBMCs, % anti-huIgG+ CD8+ cells, donor cy 2177", "description": "as §1"}}}
{"binder": "B1", "values": [{"measurement": "scFv-Fc Homodimer Yield Relative to WT (e.g. Protein A binding)", "setting": "[1]", "result": 100, "unit": "%"}]}
{"binder": "B2", "values": [{"measurement": "EC50", "setting": "[2]", "result": 0.08, "unit": "µg/mL"}, {"measurement": "EC50", "setting": "[3]", "result": 0.09, "unit": "µg/mL"}, {"measurement": "EC50", "setting": "[4]", "result": 1.1, "unit": "µg/mL"}, {"measurement": "EC50", "setting": "[5]", "result": 0.5, "unit": "µg/mL"}, {"measurement": "EC50", "setting": "[6]", "result": 0.54, "unit": "µg/mL"}, {"measurement": "EC50", "setting": "[7]", "result": 1.09, "unit": "µg/mL"}]}
